Test results from patent US20090149339A1 (published 2009).
Ends that are not written are not given here. * marks the point of attachment. Biotin = O=C1N[C@H]2[C@H](CS[C@H]2CCCCC(=O)*)N1

Assays:
[1] = biological target: GST-NOS1 PDZ domain fusion protein (human neuronal nitric oxide synthase; PDZ domain 1 of 1) (human, UniProt P08515 1-218 = GST); test: A/G assays
[2] = biological target: T1, GST-RGS12 PDZ domain fusion protein (human regulator of G-protein signalling 12 AA35-103; PDZ domain 1 of 1) (human, UniProt P08515 1-218 = GST); test: A/G assays
T1 construct: also called RSG12
T1 sequence (P08515 1-218, tags or fused parts left off): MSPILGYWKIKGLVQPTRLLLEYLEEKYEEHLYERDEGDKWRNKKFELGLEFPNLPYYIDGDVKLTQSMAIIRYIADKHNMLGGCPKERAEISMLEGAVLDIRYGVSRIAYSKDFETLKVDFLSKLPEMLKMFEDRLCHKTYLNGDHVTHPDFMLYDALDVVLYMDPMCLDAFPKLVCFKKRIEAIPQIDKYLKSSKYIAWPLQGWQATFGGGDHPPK

[3] = biological target: T2, GST-TAX40 PDZ domain fusion protein (human tax interaction protein 40 AA35-137; PDZ domain 1 of 1) (human, UniProt P08515 1-218 = GST); test: A/G assays
T2 construct: also called TX 40
T2 sequence (P08515 1-218, tags or fused parts left off): as above

[4] = biological target: T3, GST-CBP PDZ domain fusion protein (Cytohesin binding protein HE AA85-175; PDZ domain 1 of 1) (UniProt P08515 1-218 = GST); test: A/G assays
T3 construct: also called Prot
T3 sequence (P08515 1-218, tags or fused parts left off): as above

[5] = biological target: T4, GST-SYN1a PDZ domain fusion protein (alpha1-syntrophin AA96-189; PDZ domain 1 of 1) (UniProt P08515 1-218 = GST); test: A/G assays
T4 construct: also called SYN 1 alpha; SYNTR 1 alpha
T4 sequence (P08515 1-218, tags or fused parts left off): as above

[6] = biological target: GST-LIM PDZ domain fusion protein (Human LIM protein AA29-112; PDZ domain 1 of 1) (human, UniProt P08515 1-218 = GST); test: A/G assays
[7] = biological target: GST-LIMK2 PDZ domain fusion protein (human LIM domain kinase 2 AA185-275; PDZ domain 1 of 1) (human, UniProt P08515 1-218 = GST); test: A/G assays
[8] = biological target: T5, GST-KIAA0303 PDZ domain fusion protein (KIAA0303 AA652-742; PDZ domain 1 of 1) (UniProt P08515 1-218 = GST); test: A/G assays
T5 construct: also called K303
T5 sequence (P08515 1-218, tags or fused parts left off): as above

[9] = biological target: T6, GST-TAX33 PDZ domain fusion protein (tax interaction protein 33 AA73-162; PDZ domain 1 of 1) (UniProt P08515 1-218 = GST); test: A/G assays
T6 construct: also called TX33
T6 sequence (P08515 1-218, tags or fused parts left off): as above

[10] = biological target: T7, GST-CASK PDZ domain fusion protein (CASK AA495-584; PDZ domain 1 of 1) (mouse, UniProt P08515 1-218 = GST); test: A/G assays
T7 construct: also called mCASK
T7 sequence (P08515 1-218, tags or fused parts left off): as above

[11] = biological target: GST-prIL16 PDZ domain fusion protein (putative interleukin 16 precursor AA170-383; PDZ domains 1-2 of 2) (UniProt P08515 1-218 = GST); test: A/G assays
GST-prIL16 PDZ domain fusion protein (putative interleukin 16 precursor AA170-383; PDZ domains 1-2 of 2), sequence (P08515 1-218, tags or fused parts left off): as above

[12] = biological target: GST-MINT3 PDZ domain fusion protein (human MINT3 AA11-52; PDZ domain 1 of 1) (human, UniProt P08515 1-218 = GST); test: A/G assays
GST-MINT3 PDZ domain fusion protein (human MINT3 AA11-52; PDZ domain 1 of 1), sequence (P08515 1-218, tags or fused parts left off): as above

[13] = biological target: GST-DVL1 PDZ domain fusion protein (human dishevelled segment polarity protein homolog AA248-340); PDZ domain … (human, UniProt P08515 1-218 = GST); test: A/G assays
GST-DVL1 PDZ domain fusion protein (human dishevelled segment polarity protein homolog AA248-340); PDZ domain …, sequence (P08515 1-218, tags or fused parts left off): as above

[14] = biological target: GST-PTN-4 PDZ domain fusion protein (protein-tyrosine phosphatase meg1 AA774-862; PDZ domain 1 of 1) (UniProt P08515 1-218 = GST); test: A/G assays
GST-PTN-4 PDZ domain fusion protein (protein-tyrosine phosphatase meg1 AA774-862; PDZ domain 1 of 1), sequence (P08515 1-218, tags or fused parts left off): as above

[15] = biological target: T8, GST-KIAA0559 PDZ domain fusion protein (KIAA0559 AA766-870; PDZ1 of 1) (UniProt P08515 1-218 = GST); test: A/G assays
T8 construct: also called K559
T8 sequence (P08515 1-218, tags or fused parts left off): as above

[16] = biological target: T9, GST-TAX43 PDZ domain fusion protein (human tax interaction protein 43 AA15-85; PDZ domain 1 of 1) (human, UniProt P08515 1-218 = GST); test: A/G assays
T9 construct: also called TX 43
T9 sequence (P08515 1-218, tags or fused parts left off): as above

[17] = biological target: GST-TIAM1 PDZ domain fusion protein (T-lymphoma invasion and metastasis inducing protein 1 AA1001-1088); PDZ 1 … (UniProt P08515 1-218 = GST); test: A/G assays
GST-TIAM1 PDZ domain fusion protein (T-lymphoma invasion and metastasis inducing protein 1 AA1001-1088); PDZ 1 …, sequence (P08515 1-218, tags or fused parts left off): as above

[18] = biological target: T10, GST-KIAA0316 PDZ domain fusion protein (KIAA0316 AA197-284; PDZ domain 1 of 1) (UniProt P08515 1-218 = GST); test: A/G assays
T10 construct: also called K316
T10 sequence (P08515 1-218, tags or fused parts left off): as above

[19] = biological target: T11, GST-TAX2 PDZ domain fusion protein (human tax interaction protein 2 AA54-140; PDZ domain 1 of 1) (human, UniProt P08515 1-218 = GST); test: A/G assays
T11 construct: also called TX 2
T11 sequence (P08515 1-218, tags or fused parts left off): as above

[20] = biological target: T12, GST-NeDLG PDZ domain fusion protein (presynaptic protein sao102, neuroendocrine-dlg; PDZ domains 1-2 of 3) (UniProt P08515 1-218 = GST); test: G assay
T12 construct: also called NeDLG1
T12 sequence (P08515 1-218, tags or fused parts left off): as above

[21] = biological target: GST-PSD95 PDZ domain fusion protein (human post-synaptic density protein 95 AA387-724; PDZ domains 1-3 of 3) (human, UniProt P08515 1-218 = GST); test: G assay
[22] = biological target: GST-MPP1 PDZ domain fusion protein (55 Kd erythrocyte membrane protein AA101-186; PDZ domain 1 of 1) (UniProt P08515 1-218 = GST); test: A/G assays
GST-MPP1 PDZ domain fusion protein (55 Kd erythrocyte membrane protein AA101-186; PDZ domain 1 of 1), sequence (P08515 1-218, tags or fused parts left off): as above

[23] = biological target: T13, GST-41.8 kD PDZ domain fusion protein (hypothetical 41.8 kD protein AA4-85; PDZ domain 1 of 1) (UniProt P08515 1-218 = GST); test: A assay
T13 construct: also called hypoth
T13 sequence (P08515 1-218, tags or fused parts left off): as above

[24] = biological target: T14, GST-MPP2 PDZ domain fusion protein (maguk p55 subfamily member 2 (DLG2) AA185-273; PDZ domain 1 of 1) (UniProt P08515 1-218 = GST); test: A assay
T14 construct: also called MMP2

[25] = biological target: GST-AF6 PDZ domain fusion protein (af-6 protein AA985-1077; PDZ domain 1 of 1) (UniProt P08515 1-218 = GST); test: A assay
GST-AF6 PDZ domain fusion protein (af-6 protein AA985-1077; PDZ domain 1 of 1), sequence (P08515 1-218, tags or fused parts left off): as above

GST-NOS1 PDZ domain fusion protein (human neuronal nitric oxide synthase; PDZ domain 1 of 1), sequence (P08515 1-218, tags or fused parts left off): as above

B1: Glycophorin C C-terminal PL peptide AA37L, biotinylated (peptide)
peptide: Biotin-QGDPALQDAGDSSRKEYFI
notes: also called GC
[1]
  binding result: no binding
[2]
  binding result: no binding
[3]
  binding result: no binding
[4]
  binding result: no binding
[5]
  binding result: no binding
[6]
  binding result: no binding
[7]
  binding result: no binding
[8]
  binding result: no binding
[9]
  binding result: no binding
[10]
  binding result: no binding
[11]
  binding result: no binding
[12]
  binding result: no binding
[13]
  binding result: no binding
[14]
  binding result: no binding
[15]
  binding result: no binding
[16]
  binding result: no binding
[17]
  binding result: no binding
[18]
  binding result: no binding
[19]
  binding result: no binding
[20]
  binding result: binds
[21]
  binding result: binds
[22]
  binding result: no binding
[23]
  binding result: binds
[24]
  binding result: binds
[25]
  binding result: binds
